Measurements as given in doi:10.1101/2023.07.08.548221.

Molecular target: strep-CsoS1A (hexameric shell protein CsoS1A) (Halothiobacillus neapolitanus) (UniProt P45689)
Assay: turbidity

UniProt P45689, sequence (P45689 whole entry): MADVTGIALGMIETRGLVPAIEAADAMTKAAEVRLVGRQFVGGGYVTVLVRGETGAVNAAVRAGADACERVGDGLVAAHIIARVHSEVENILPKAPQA

fold turbidity with CsoS1A against wtMR: 5 fold
Substance: His-CsoS2B (full-length CsoS2, long form) (from UniProt O85041-1 1-869) (natural protein)
